B1: atacicept (Fc fusion, human, UniProt O14836 1-165, looked up)
chain: MSGLGRSRRGGRSRVDQEERFPQGLWTGVAMRSCPEEQYWDPLLGTCMSCKTICNHQSQRTCAAFCRSLSCRKEQGKFYDHLLRDCISCASICGQHPKQCAYFCENKLRSPVNLPPELRRQRSGEVENNSDNSGRYQGLEHRGSEASPALPGLKLSADQVALVYS
notes: also called TACI-Ig; soluble receptor fusion protein of TACI
B2: Flag-zippered (zz) 12.6 form of APRIL (amino acids 110-250) (domain or fragment, human, UniProt O75888 110-250, looked up)
chain: KQKKQHSVLHLVPINATSKDDSDVTEVMWQPALRRGRGLQAQGYGVRIQDAGVYLLYSQVLFQDVTFTMGQVVSREGQGRQETLFRCIRSMPSHPDRAYNSCYSAGVFHLHQGDILSVIIPRARAKLNLSPHGTFLGFVKL
notes: human APRIL amino acids 110-250, downstream of the otPA leader, Flag and the zz12.6 trimerization domain; The APRIL chain of the heterotrimer m3; the zipper itself may help to hold the chains together; also called Flag-zz12.6 APRIL; APRIL NF zz12.6; source: CHO DXB11, co-expressed with Hisx6-zz12.6 BLyS, purified from conditioned media (Ni-NTA, heparin, SEC); not shown: Flag, N-terminal, kept; …
B3: a proliferation-inducing ligand (APRIL) homotrimer, recombinant (ligand, human, UniProt O75888 110-250, looked up)
chain: B2 chain
notes: APRIL, recombinant soluble homotrimer; Six lots were used for SPR; also called homotrimeric APRIL
B4: B-cell maturation antigen (BCMA)-immunoglobulin (Ig) (Fc fusion, UniProt Q02223 1-54, looked up)
chain: MLQMAGQCSQNEYFDSLLHACIPCQLRCSSNTPPLTCQRYCNASVTNSVKGTNA
notes: BCMA, soluble receptor-Fc fusion protein; Construct not described in the main text; Additional file 1 may describe it; also called BCMA-Ig

What was measured:
Conditions in all cases: both partners purified
[1] = biological target: T1, recombinant BLyS/APRIL heterotrimer (Hisx6-zz12.6 BLyS with Flag-zz12.6 APRIL), predominantly 2 APRIL to 1 … (human, UniProt O75888 110-250; Q9Y275 141-285); assay: SPR; Biacore 3000; atacicept, BCMA-Ig and BAFF-R-Ig covalently immobilized on a CM4 chip; ligands ~0.05 to 20 nMol/L flowed at 50 ul/min, 25 C; 20 mmol/L sodium phosphate, 150 mmol/L NaCl, 0.05% polysorbate 20, pH 7.5; KD from ka and kd, global fit to a 1:1 model; stoichiometry not determined
T1 construct: human APRIL amino acids 110-250, downstream of the otPA leader, Flag and the proprietary zz12.6 trimerization domain; The preparation holds a small fraction of 1 APRIL to 2 BLyS (AB2) heterotrimers; also called heterotrimers; HT; not shown: Flag, N-terminal, kept; zz12.6 trimerization domain, N-terminal, kept; His6, N-terminal, kept; copies: 2 + 1

[2] = biological target: T2, Hisx6-zz12.6 form of BLyS (amino acids 141-285) (human, UniProt Q9Y275 141-285); assay: SEC-MALS; heterotrimer co-expressed in CHO, purified by Ni-NTA (His on BLyS), heparin and SEC; ratio of the chains by Western blot (anti-His, anti-Flag), confirmed by SEC-MALS
T2 construct: The BLyS chain of the heterotrimer m3; the zipper itself may help to hold the chains together; also called BLyS NH6 zz12.6; His-zz12.6 BLyS; source: CHO DXB11, co-expressed with Flag-zz12.6 APRIL, purified from conditioned media (Ni-NTA, heparin, SEC); not shown: His6, N-terminal, kept; zz12.6 trimerization domain, N-terminal, kept

atacicept = biological target: B1; assay: SPR; Biacore 3000; atacicept, BCMA-Ig and BAFF-R-Ig covalently immobilized on a CM4 chip; ligands ~0.05 to 20 nMol/L flowed at 50 ul/min, 25 C; 20 mmol/L sodium phosphate, 150 mmol/L NaCl, 0.05% polysorbate 20, pH 7.5; KD from ka and kd, global fit to a 1:1 model; stoichiometry not determined
[3] = biological target: B3; assay: as above

T1 sequence (Q9Y275 141-285, chain 2 of 2, one chain of several): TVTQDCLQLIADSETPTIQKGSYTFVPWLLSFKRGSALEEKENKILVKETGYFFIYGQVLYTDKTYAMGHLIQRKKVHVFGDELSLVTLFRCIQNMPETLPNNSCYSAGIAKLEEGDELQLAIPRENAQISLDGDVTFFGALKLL
T2 sequence (Q9Y275 141-285): as the sequence (Q9Y275 141-285, chain 2 of 2, one chain of several) above

## B1
[1]
  Kd: 400 pM

## B2
[2]
  stoichiometry N: 2 APRIL per BLyS

## B3
atacicept
  Kd: 100 to 200 pM

## B4
[3]
  Kd: 0.1 to 0.3 pM
[1]
  Kd: 10 pM
